From a protein production outcome set (Wang et al. 2014) come the findings set out here.

This data set in a line: label from the status in PepcDB records.

With “MRKVLSFSAFLIIGLLLSQYLPLLAGEGYATVKIVSNILLYICLSFIMINVGREFEVDKTRWRSYAGDYFIAMATAAMPWFLIAIYYVFVLLPPEFWNSWEAWKENLLLSRFAAPTSAGILFTMLAAIGLKSSWIYKKIQVLAIFDDLDTILLMIPLQIMMIGLRWQLIVVVFIVFLLLSLGWKQLGRYNWRQDWKAIMGYSVLVFVATQAVYYFSKQLYGEEGSIHIEVLLPAFVLGMIMKHKEIDTPVEHKVSTGVSFLFMFLVGMSMPHFIGVNFAETHAGTHSVTGSQEMMSWGMIALHVLIVSLLSNIGKLFPVFFYRDRKFSERLALSIGMFTRGEVGAGVIFIALGYNLGGPALVISVLTIVLNLILTGIFVLWVKKLALRSYTT”, the protein production entry was “failed”.

With “MRKVRPEELPALLEEGVLVVDVRPADRRSTPLPFAAEWVPLEKIQKGEHGLPRRPLLLVCEKGLLSQVAALYLEAEGYEAMSLEGGLQALTQGK”, the protein production result is “not failed”.

Take “MRLAVLADIHGNADALEAVRADLALQSPDLVVNLGDCLSGPLEVERTADLLMEANWPAVRGNHDRWLVEPEGGTVWETDARPRLSAAQRDWLAALPATRVEAGAFLCHATPGSDLIYWLHHVTPEGHVAPSPLERISRFADGITERLILCGHTHLARSVRLPDGRLVVNPGSVGCPGYEDDAPVPHRVESGTPAACYAILDSKGGDWRVTFRQIPYDHDRAARLAGRYGRPDWESVLATGWLPAQKGQGAL”: the protein production entry was “failed”.

Take “MRLDLSAKFRQVLGLAKDHASIGRAIVQNYNEKAFFDIEVAVVRATSHDDCPVDDKTMHEILFLVSNTPGSIPFLAEQISRRLAKTRDCLVAGKTLLLFHRLLRGSSRSIEQQLHIAHTSGHLQIGCSWFMMSLDSRSFVFLQNYVAYLQERVGWIINQAGKLEPVMSGGTKFSRYKEKSMDLVFHILPKCQEFIAQVLKCSPVDAWPIDNLVQAATGNILKESFQVYMTYSDGMTALVSMLFDLSRPARDLACGMLRKASQQIQDLRILYDKCRGFAGMKSLDYPSVQAISMDHIVALEECSSYGGKRGFSLSTNLRDAITCNELKQEQHSASFSSTSPFSLPVETKISMVWVVFDNEDGEESDKQTEKAYER”: the protein production result is listed as “failed”.

For “MRLEKQLIKKMYYETFLMENETKPTLDVLGQAYVNEEKNEISDGSYIRFAQGEFYYRHQDFEAAIFKWEKVSNELAPWAQKNIADAYFELNQLSFAENIYTSITTDNKILMTEIRLQLLSLYIEQNNFDSAFGVIKEAVSLNPDYPNVTKIARSFYEEQQDFDSAVELAVNELIRIESYPWFEVLKGYIDKGFTKHISPDYFYDALATLNNVDQVQFTQMVSSLWNSYKNEKNYLLWLNTINEFFLHIEIHSSDIWNKVSALYEETYFALIQGQYTLRQLNDIIPNLLANWLKVVNPSYAVFPSAAVLAWDEIFPSKIDSANIEHAENLLSHSINHVNGLEYSLHLFESITQWAQKQNIEIGHRFKWLVDELADLRTNRILVTGTSGNGKTTFINSILGENILEKSISNVVVLKNDAHIEINAITDSAITTTEDVSDYHNMMSQHHQTYRDRACVEFKLPCRFLNENKLTFVVTPGFNRNNDTRDEIFEYLNSVDELLFVLNADSPFTDKERDILLSIQEHTPNLQIHFLLNKIDNIYSEAEVKRVLHDTATRINTYFPYARIFPYSSLYTSSQQLNDLTEFIHFNFNHKNIDAERTEKLLFFIRKTITYLLDKRVEKENNLVDAINWNEDMLVKLNGSINNLTTFEREKIHFITQSYRSMKTEITNDLTENIPKILKSCSNLISEESDFGHMDTELNKAMNERVHKYLEQTVLPNLALSMQNWIATSNNELLQSQTYLEELSEGLNSLFGENRIQLECDFKVLDDWRRDTDRMTTRIQMDEVNILRRFTPAQFLLKSAGKLFGVLPKNKSMLYNKYKQYVENEDYTEVTASIMKKFFLQFELFENTQERDINIFFRNPFNSLKQAVENTHLEIQEKQEILHKMKSNPEIYHDSIMLFELRLRQCEVILNIGNDNTYTDVALETSVE”, the protein production result is “failed”.

For the sequence “MRLFFEFTLCAALGLLVSGVILIFLLFFGKFGLIEYWIASGKPLAHAMLVLMPDGFWEGLSGIEGAAGNPHVRSFLELCMGLGQSALLLGLLLFRLVCWK”, the protein production entry is “failed”.

Take “MRLFIMEFKHLMFSKTFLFYCLLIIIFTVLNCQQVLKHPINSDVYQPQNMTMYSTDKNLIMSNEIKELKNEVHQNNFKTYQFGFLKQKKLNDQQISKIKKLISKMEKTNNFHQFKNYSNSVSHVVGWGSQYSKNNISLFGIKNMSKSKYVKEKNIIKNKEYYYGAYSRYFSDIMGVVLGILPFFLGAQMILQDKKSNAIKTIHSKSISSYQLISTRVFTILVLAYLPVLLVSIYFVTCLSMIHQISMFSLFIFYKILILWTLPTLIFTIAMGFFVTIILNSYLGVMIQIVIWFINLNIGSRAIEGCYGSLLIPRHNTLFNAVFFYNHFNQILANRFTYFGLGLLLILLSTYIFDLKRREVGFNAKIFTNRYQN”: the protein production entry is on record as “failed”.

With “MRLFIVQAMFTEYRPTHGYDEYFCREQSAPRADLEPLLSSLGAMGLAELNRSHASASNLLRRLGATFRLNGSGLHGGERILPFDPLPRLIHRQEWSVLERGLVQRLEAIDQFLADVYGPQRILNDGVIPREDVESSQGWRPQMQDIAVPLNRWCHISGLDLIRDGDGTWRVLEDNLRCPSGVAYFLENRRVMKRLFPSLFQGRTVQPIDDYPSHLLRTLQDLAPWSDAPRVVLLTPGVFNSAYFEHSYLAQQMGIALVEGRDLICEDGRVWMRSTAGREPVDVIYRRIDDDFLDPNVFRRDSMLGVPGLIDAMRSGRVAIANAPGSGVADDKLIYAYVPAMIRYYLNEEPIIDNVPTYLCSRDDDRRYVLEHLNELVVKSVAEAGGYGMLIGPHASSEEIESFAVKIKAHPRNFIAQPTLQLSTVPSLSEGELYPCHVDLRPYVLRGKSDWVSPGGLTRVALKRGSLVVNSSQGGGCKDTWVVSDSAVTAGNQELVPC”, the protein production result is “failed”.

Regarding “MRLGRIASPDGVAFVSIEGELDNPAEMIAREIAEHPFGTPNFTGRSWPLADVRLLAPILASKVVCVGKNYADHIAEMGEATGPVPADPVIFLKPNTAIIGPNVPIRLPANASPVHFEGELAVVIGRPCKDVSAAQAAENILGYTIGNDVSARDQQRSDGQWTRAKGHDTFCPVGPWIVTDLNPLDPGDLELRTEVNGEVKQRSRTSLLIHDIGSIVEWISAVMTLLPGDLILTGTPAGVGPIEDGDTVSITIEGIGTLTNPVVRKGKS”, the protein production entry is listed as “failed”.

With “MRLIERYLFRQLLGPTLLATAALVALALLARSLSEFDVLVEQRQSALVFLKIILLALPQLLGIMMPLALFVAALVALNRLHTEQEIVVCFAGGMSRWRVISPAMRLAVIAALISLISGLWLQPWSARQIRETAFQIKTDVAATLVQPGQFTEPGPGLTVYAQSIDRDNKIQNLFIHQELPNGAASTYSSREAEIATRKGEPVLIMRHGSNQQFSRDGVLQYTSFDEYTFDLSSLFHSDELLHYKIADRYPHELFFPDLTQEWEQRNKDKLLAEGHSRFAGPLYNIALMSMALAAVLGGSFSRMGYGKRIAAVGAAAAIVRIVGFGVQAACEDDPWLNVLQYIVPLAATAWAMSQIFRQRVSPRRKTKPATPAPAFSGAA”, the protein production result is on record as “failed”.

Regarding “MRLITHNMLSCNIKGVTSGFPLRIEAGNVIEKEVDFNPDFIRHMFAKIEWKALVEGARSMGYAELPEESPDAAVLKSDEPFLKKLHHALLELHLEEGALVCPETGRKFPVNKGIPNMLLHEDEV”, the protein production entry is given as “failed”.

In the case of “MRLNGDVGWLWDWLAAAGLEPRALGEAAVLCALKRRLDAAGCTAAAYPARLAADAEERARLLDAVLVPETWFFREPPAFEALAESAARHRLQRRSVPFHVLSLGCSTGEEPWSIVIALREAGMRKGDFRVEALDISARAIEAARAGIYGGRSFRSPGDGTWRSRYFDELGDGRYRVKDGLRGDVEYRVAHLGDPGWGGGRRYQAVFCRNVLIYLRAELRARIMDQCRDALDPGGLLVLGHADGIGGPDRGFRRHGVAGAFSWIRRDAAEAEPPPARSSRPLAAKAVRRDAPGEAKPSGPDLLSGGRETGRAAPFDEGAVLGTARALADGGNYQAAERLCQSHLASHPHDPEVHALLGIVMSAANRDDEALRYFRQALYLAPSHNESLLHLAALYERRGDEERARHFRNRSAAAEGEP”, the protein production entry is “failed”.

As for “MRLNQISKFAIVSVVVLVLALLLGGSAKTNLTVEEVNKALEPFFDSLSYILNYYYEADKLDINKLIDHAIDGLVKGTGDDFSYYQDPETYRENQIEMKGEYGGLGIEVTYDAEHGAIKVVAPMYGTPAWRAGLKAGDLIITIDGTPVSKMTYMEAVNNLRGEPGTSVTIEVLRDGEKLTFTIVREKIEIKMVLYSFIETEKGSIGYVRITRFGEKADSDMKNALDKIFEKGVKGLIIDVRDNPGGYLDVALKIVSMFVDKGVILKVRNGFGEEDVYESYGNSYPNVPIVLLVNEGSASASEILTGALKDLGIATVVGRKTFGKGSVQTGFPLSNGGVLFLTTAHYLTPSGKDIHKIGIEPDVLVEESVEEELHAETREQIEVDPEKDPFVKKGLEVLLEKIK”, the protein production entry is recorded as “failed”.

In the case of “MRLPPRLALSVLAGRGPSCILGSGAATRKDWQERNRRSFSDLYTQPLPDCDFEESSSWTHKSRSEPTRHIACKKSARNLVRDLLEHQNPSHQLILECNPGPGILTGALLKAGARVVAFESEKMFIPHLESLRKNADGELQVVHCDFFKIDPRYQELVRPDVNSHTIFQNLGIKAVPWSAGVPIKVFGILPNKHERRLLWKILFDLYSCESIYRYGRVELNMFISEKEFRVRC”, the protein production entry is given as “failed”.

Consider “MRLRVDVIPGEHLAYPDVVLVVDVIRATTTAAAFLEAGAEALYWTPSLESALAFKDEDVVLAGETGGLKPPRFDLGNSPREALSAQVAGRVVVMSTTNGTKAAHAAARTAKHVLLASLYNAHAAARLARELATEEVAILCAGKEGRAGLDDLYTAGVLAEYLGFLGEVEPEDGARVALAVKRAYPDPLEALSLSAAALALKQVGLEADVPFCAQVAKSAAVPVLRGRVGEALIFKRA”, for which the protein production result is listed as “not failed”.

As to “MRLTIERRKASLYLRGNLPPKLPGGEWKQQRMPLGLDATPLGVKQAEAKAHQVGLELQMDRFRWQDHVELPIDASVMSGLVHLAEERYFSERDRTAKTLSTWQRVYVAHYRQIGLDKPFSLELIHRYLSSKRGFPNALQKAIVACRFLCAVANQPLDARPWQGVATRREVVPRELPTQQQIVDWFDHLKNMQLHHQPEFRAGWIWVYAAIATYGLRPHEAWYLDLDSLRKSKGKRVWLKDGKTGPRWVYPCPPQWVQRFDLCHGGPPPINVRNNQELGTRAGQWAKANGVPPLYGLRHSYAVRLIEYEFPVTVAAKMMGHSPQVHTETYHRWLGDREVQSYAEDLLR”, the protein production result is “failed”.

With “MRLTKLAATIGCVTLSGLALVACSSDSTAGTDAVAVGGTFQFHSPDGKMEIFYDEADRQQLPDIGGDSLMEEGTQINLSDFENQVVILNAWGQWCAPCRSESDDLQIIHEELQAAGNGDTPGGTVLGINVRDYSRDIAQDFVTDNGLDYPSIYDPPFMTAASLGGVPASVIPTTIVLDKQHRPAAVFLREVTSKDVLDVALPLVDEA”, the protein production entry is recorded as “not failed”.

Turning to “MRLVSLLPSATEIIAALGLLPFLVGRSHECDYPPEVKALPVCTRARLNAQQSSLAIDRVVQELLRAALGIYDLELATLQALKPTHIITQDQCDVCAVTLPDVQRAIADLLEPPPQLISLQPHCLEDIWEDIRRVGLTLGVAPDPLLTVLKERMRACQRRVSDRPRRQVVAIEWIDPPMASGNWIPELIALAGGENMLGTAGKHSPYIEWSTLLAIDPEVILVMPCGFDLERTRQELDQALQTYPQWQQLRALQTGQLYILDGNAYFNRPGPRLVDSLEILVEILHPCPEPKFHGVGWRPYVGPSMAKMSDEG”, the protein production entry is “failed”.
